In patent US20260176346A1 one finds Kd, koff and kon data, which are given here for one substance.

This assay has as its target recombinant human VEGF (R&D Systems, 293-VE-010) (human) (UniProt P15692). Nature of the assay: Octet HTX biosensor (BLI); positive control antibody at 10 ug/mL in 1x kinetics buffer; recombinant human VEGF in 1:2 series, 200 nM to 3.125 nM.
UniProt P15692, sequence (P15692 other isoform, or with tags, fused parts or gaps limits assumed): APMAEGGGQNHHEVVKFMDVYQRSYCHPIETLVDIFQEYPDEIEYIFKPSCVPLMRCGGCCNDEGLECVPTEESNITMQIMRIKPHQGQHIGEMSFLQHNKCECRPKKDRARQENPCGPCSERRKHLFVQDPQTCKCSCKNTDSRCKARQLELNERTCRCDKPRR

As to “mouse anti-human VEGF monoclonal antibody (anti-hVEGF MmAb; R&D Systems, MAB293-100)”, the Kd turned out to be 0.229 nM, the koff turned out to be 7.77e-05 s⁻¹ and the kon was 340000 M⁻¹ s⁻¹.
